Starred links: 1 amine or outer side, 2 acyl side, 3 side chain; linkers in the order of their positions; H or OH if unused. Positions of bridges follow the written chain, without caps; N, C: chain ends. Non-standard residues stand in square brackets, D forms with d. No end group written: not given here. *: point of attachment. X1 = 3‑(7-(3-acetamidophenyl)-1H-indol-3-yl)‑2‑aminopropanoic acid, CC(=O)Nc1cccc(-c2cccc3c(CC(N[*:1])C(=O)[*:2])c[nH]c23)c1; X3 = 4‑(2-(4-(2-amino-2-carboxyethyl)phenoxy)ethyl)‑4‑methylmorpholin‑4‑ium, C[N+]1(CCOc2ccc(CC(N[*:1])C(=O)[*:2])cc2)CCOCC1; X10 = 2‑amino‑3‑(4-(2-guanidinoethoxy)phenyl)propanoic acid, N=C(N)NCCOc1ccc(CC(N[*:1])C(=O)[*:2])cc1; X11 = 2‑amino‑3‑(2-hydroxyquinolin-6-yl)propanoic acid, O=C(C(Cc1ccc2nc(O[*:3])ccc2c1)N[*:1])[*:2]; X7 = 2‑amino‑3‑(5-methylpyridin-3-yl)propanoic acid, Cc1cncc(CC(N[*:1])C(=O)[*:2])c1; Trp(7-(3-AcNH-Ph)) = CC(=O)Nc1cccc(-c2cccc3c(C[C@H](N)C(=O)O)c[nH]c23)c1; 2Nal(6-OH) = N[C@@H](Cc1ccc2cc(O)ccc2c1)C(=O)O; Trp(7-Me) = Cc1cccc2c(C[C@H](N)C(=O)O)c[nH]c12; dLys(Me3) = C[N+](C)(C)CCCC[C@@H](N)C(=O)O; AEF = NCCOc1ccc(C[C@H](N)C(=O)O)cc1; 3Pal = N[C@@H](Cc1cccnc1)C(=O)O; Pen = CC(C)(S)[C@H](N)C(=O)O; αMeC = C[C@](N)(CS)C(=O)O; Thp = NC1(C(=O)O)CCOCC1; Abu = CC[C@H](N)C(=O)O; Propionyl = CCC(=O)*; Sar = CNCC(=O)O
Target: T1, interleukin-23 receptor (IL-23R), Q5VWK5
T1 chain: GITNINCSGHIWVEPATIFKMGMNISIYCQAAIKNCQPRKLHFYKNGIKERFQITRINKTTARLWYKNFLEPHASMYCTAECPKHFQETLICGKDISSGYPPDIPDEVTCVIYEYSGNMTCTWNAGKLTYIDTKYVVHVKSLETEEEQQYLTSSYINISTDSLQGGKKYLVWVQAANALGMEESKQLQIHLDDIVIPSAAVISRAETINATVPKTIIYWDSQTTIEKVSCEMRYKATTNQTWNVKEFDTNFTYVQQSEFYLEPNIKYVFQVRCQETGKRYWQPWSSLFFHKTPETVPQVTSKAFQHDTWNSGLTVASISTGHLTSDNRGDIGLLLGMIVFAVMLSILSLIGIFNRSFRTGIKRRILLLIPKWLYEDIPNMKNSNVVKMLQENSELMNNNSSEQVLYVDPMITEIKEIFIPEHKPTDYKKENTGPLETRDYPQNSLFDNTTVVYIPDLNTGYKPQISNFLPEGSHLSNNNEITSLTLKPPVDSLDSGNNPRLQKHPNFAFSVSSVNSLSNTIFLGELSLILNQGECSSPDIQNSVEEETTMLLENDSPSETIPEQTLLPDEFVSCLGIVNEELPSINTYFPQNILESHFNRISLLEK
Assay: cell-based or functional assay

B1: SEQ ID NO: 137 (peptide)
peptide: R[Pen]ET[Trp(7-Me)]K(Ac)[Pen][AEF][2Nal(6-OH)][Thp]EN[3Pal][Sar]
modifications: disulfide 2-7 (inferred); ends not checked
IL23R Reporter Assay IC50: < 10 nM
PBMC pSTAT3 IC50: < 10 pM

B2: SEQ ID NO: 120 (peptide)
peptide: R[Pen]NT[Trp(7-Me)]K[Pen][AEF][2Nal(6-OH)][Thp]EN[3Pal][Sar]
modifications: disulfide 2-7 (inferred); ends not checked; also: K6: lipidated lysine, lipid not given here
IL23R Reporter Assay IC50: > 100 nM
PBMC pSTAT3 IC50: < 1 nM

B3: SEQ ID NO: 17 (peptide)
peptide: [dLys(Me3)][Pen]NT[X1]K(Ac)[Pen][5‑(4-(2-amino-2-carboxyethyl)phenoxy)‑N,N,N‑trimethylpentan‑1‑aminium][2‑amino‑3‑(6-hydroxynaphthalen-2-yl)propanoic acid][Thp]EN[X7][Sar]
modifications: ends and bridges not checked
IL23R Reporter Assay IC50: < 10 nM
PBMC pSTAT3 IC50: < 10 pM

B4: SEQ ID NO: 20 (peptide)
peptide: R[Pen]NT[X1]K(Ac)[Pen][5‑(4-(2-amino-2-carboxyethyl)phenoxy)‑N,N,N‑trimethylpentan‑1‑aminium][2‑amino‑3‑(6-hydroxynaphthalen-2-yl)propanoic acid][Thp]EN[X7][Sar]
modifications: ends and bridges not checked
IL23R Reporter Assay IC50: < 10 nM
PBMC pSTAT3 IC50: < 0.1 nM

B5: SEQ ID NO: 16 (peptide)
peptide: [Pen]NT[X1]K(Ac)[Pen][X10][2‑amino‑3‑(6-hydroxynaphthalen-2-yl)propanoic acid][Thp]EN[X7][Sar]
modifications: ends and bridges not checked
IL23R Reporter Assay IC50: < 10 nM
PBMC pSTAT3 IC50: < 10 pM

B6: SEQ ID NO: 98 (peptide)
peptide: [Abu]NTWQC[AEF][2Nal(6-OH)][Thp]EN[3Pal][Sar]
modifications: ends and bridges not checked
IL23R Reporter Assay IC50: < 10 nM
PBMC pSTAT3 IC50: < 10 pM

B7: SEQ ID NO: 94 (peptide)
peptide: R[Pen]NT[Trp(7-Me)]K(Ac)[Pen][AEF][2Nal(6-OH)][Thp]EN[3Pal][Sar]
modifications: disulfide 2-7 (inferred); ends not checked
IL23R Reporter Assay IC50: < 10 nM
PBMC pSTAT3 IC50: < 1 nM

B8: SEQ ID NO: 130 (peptide)
peptide: [Pen]NT[Trp(7-Me)]K[Pen][AEF][2Nal(6-OH)][Thp]K(Ac)N[3Pal][Sar]
modifications: disulfide 1-6 (inferred); ends not checked; also: K5: lipidated lysine, lipid not given here
IL23R Reporter Assay IC50: > 100 nM
PBMC pSTAT3 IC50: < 1 nM

B9: SEQ ID NO: 149 (peptide)
peptide: [Pen]NT[Trp(7-Me)]K(Ac)[Pen][2‑amino‑3‑(4-(2-aminoethoxy)phenyl)propanoic acid][X11][Thp]EN[3Pal][Sar]
modifications: disulfide 1-6 (inferred); ends not checked
IL23R Reporter Assay IC50: < 10 nM
PBMC pSTAT3 IC50: < 0.1 nM

B10: SEQ ID NO: 152 (peptide)
peptide: [Pen]NT[X1]K[Pen][2‑amino‑3‑(4-(2-aminoethoxy)phenyl)propanoic acid][2‑amino‑3‑(6-hydroxynaphthalen-2-yl)propanoic acid][Thp]K(Ac)N[3Pal][Sar]
modifications: disulfide 1-6 (inferred); ends not checked; also: Lys5: lipidated lysine, lipid not given here
IL23R Reporter Assay IC50: > 100 nM
PBMC pSTAT3 IC50: < 1 nM

B11: SEQ ID NO: 154 (peptide)
peptide: R[Pen]NT[X1]K[Pen][2‑amino‑3‑(4-(2-aminoethoxy)phenyl)propanoic acid][2‑amino‑3‑(6-hydroxynaphthalen-2-yl)propanoic acid][Thp]EN[3Pal][Sar]
modifications: disulfide 2-7 (inferred); ends not checked; also: K6: lipidated lysine, lipid not given here
IL23R Reporter Assay IC50: > 100 nM
PBMC pSTAT3 IC50: < 1 nM

B12: SEQ ID NO: 10 (peptide)
peptide: [dK](Propionyl)[Abu]NTWQC[AEF][2Nal(6-OH)][Thp]CN[3Pal][Sar]
modifications: ends and bridges not checked
IL23R Reporter Assay IC50: < 10 nM
PBMC pSTAT3 IC50: < 10 pM

B13: SEQ ID NO: 91 (peptide)
peptide: K[Pen]NT[Trp(7-Me)]K(Ac)[Pen][2‑amino‑3‑(4-(2-aminoethoxy)phenyl)propanoic acid][2‑amino‑3‑(6-hydroxynaphthalen-2-yl)propanoic acid][Thp]EN[3Pal][Sar]
modifications: disulfide 2-7 (inferred); not fully specified (residue 1); ends not checked; also: K1: lipidated lysine, lipid not given here
IL23R Reporter Assay IC50: < 10 nM
PBMC pSTAT3 IC50: < 0.1 nM

B14: SEQ ID NO: 90 (peptide)
peptide: K[Pen]NT[Trp(7-Me)]K(Ac)[Pen][2‑amino‑3‑(4-(2-aminoethoxy)phenyl)propanoic acid][2‑amino‑3‑(6-hydroxynaphthalen-2-yl)propanoic acid][Thp]EN[3Pal][Sar]
modifications: disulfide 2-7 (inferred); not fully specified (residue 1); ends not checked; also: K1: lipidated lysine, lipid not given here
IL23R Reporter Assay IC50: < 10 nM
PBMC pSTAT3 IC50: < 0.1 nM

B15: SEQ ID NO: 95 (peptide)
peptide: [Pen]NT[Trp(7-Me)]K(Ac)[Pen][AEF][2Nal(6-OH)][Thp]KN[3Pal][Sar]
modifications: disulfide 1-6 (inferred); not fully specified (residue 10); ends not checked; also: K10: lipidated lysine, lipid not given here
IL23R Reporter Assay IC50: < 10 nM
PBMC pSTAT3 IC50: < 0.1 nM

B16: SEQ ID NO: 2 (peptide)
peptide: RCNT[X1]K(Ac)[αMeC][2‑amino‑3‑(4-(2-aminoethoxy)phenyl)propanoic acid][2‑amino‑3‑(6-hydroxynaphthalen-2-yl)propanoic acid][Thp]EN[3Pal][Sar]
modifications: ends and bridges not checked
IL23R Reporter Assay IC50: < 10 nM

B17: SEQ ID NO: 100 (peptide)
peptide: [Pen]NT[Trp(7-(3-AcNH-Ph))]K(Ac)[Pen][X3][2Nal(6-OH)][Thp]EN[3Pal][Sar]
modifications: disulfide 1-6 (inferred); ends not checked
IL23R Reporter Assay IC50: < 10 nM
PBMC pSTAT3 IC50: < 10 pM

B18: SEQ ID NO: 1 (peptide)
peptide: [dK](Me3)[Abu]NTWK(Ac)[αMeC][X10][2Nal(6-OH)][Thp]EN[3Pal][Sar]
modifications: ends and bridges not checked
IL23R Reporter Assay IC50: < 10 nM

B19: SEQ ID NO: 132 (peptide)
peptide: [Pen]NT[X1]K(Ac)[Pen][AEF][2Nal(6-OH)][Thp]EN[3Pal][Sar]
modifications: disulfide 1-6 (inferred); ends not checked
IL23R Reporter Assay IC50: < 10 nM
PBMC pSTAT3 IC50: < 10 pM

B20: SEQ ID NO: 157 (peptide)
peptide: R[Pen]ET[X1]K(Ac)[Pen][2‑amino‑3‑(4-(2-aminoethoxy)phenyl)propanoic acid][2‑amino‑3‑(6-hydroxynaphthalen-2-yl)propanoic acid][Thp]EN[3Pal][Sar]
modifications: disulfide 2-7 (inferred); ends not checked
IL23R Reporter Assay IC50: < 10 nM
PBMC pSTAT3 IC50: < 10 pM

B21: SEQ ID NO: 89 (peptide)
peptide: R[Pen]KT[Trp(7-Me)]K(Ac)[Pen][2‑amino‑3‑(4-(2-aminoethoxy)phenyl)propanoic acid][2‑amino‑3‑(6-hydroxynaphthalen-2-yl)propanoic acid][Thp]EN[3Pal][Sar]
modifications: disulfide 2-7 (inferred); not fully specified (residue 3); ends not checked; also: K3: lipidated lysine, lipid not given here
IL23R Reporter Assay IC50: < 10 nM
PBMC pSTAT3 IC50: < 0.1 nM

B22: SEQ ID NO: 136 (peptide)
peptide: R[Pen]ET[Trp(7-Me)]K(Ac)[Pen][AEF][2Nal(6-OH)][Thp]EN[3Pal][Sar]
modifications: disulfide 2-7 (inferred); ends not checked
IL23R Reporter Assay IC50: < 10 nM
PBMC pSTAT3 IC50: < 10 pM

B23: SEQ ID NO: 92 (peptide)
peptide: R[Pen]NT[Trp(7-Me)]K(Ac)[Pen][2‑amino‑3‑(4-(2-aminoethoxy)phenyl)propanoic acid][2‑amino‑3‑(6-hydroxynaphthalen-2-yl)propanoic acid][Thp]EN[3Pal][Sar]K
modifications: disulfide 2-7 (inferred); not fully specified (residue 15); ends not checked; also: K15: lipidated lysine, lipid not given here
IL23R Reporter Assay IC50: < 10 nM
PBMC pSTAT3 IC50: < 0.1 nM
